These are literature values, as cited in article PMC12287344.

The data set addresses caspase-1 (Homo sapiens) (UniProt P29466).

In general, Kd refers to a measure of binding affinity in units of concentration. Consider caspase-1 (from UniProt P29466), for which the Kd was 110 µM.
